From IntAct's records for PubMed 31515488

B1: Four and a half LIM domains protein 5 (Homo sapiens), Q5TD97 (parent)
chain: MTTAHFYCQYCTASLLGKKYVLKDDSPYCVTCYDRVFSNYCEECKKPIESDSKDLCYKDRHWHEGCFKCTKCNHSLVEKPFAAKDERLLCTECYSNECSSKCFHCKRTIMPGSRKMEFKGNYWHETCFVCENCRQPIGTKPLISKESGNYCVPCFEKEFAHYCNFCKKVITSGGITFCDQLWHKECFLCSGCRKDLCEEQFMSRDDYPFCVDCYNHLYANKCVACSKPISGLTGAKFICFQDSQWHSECFNCGKCSVSLVGKGFLTQNKEIFCQKCGSGMDTDI
partner: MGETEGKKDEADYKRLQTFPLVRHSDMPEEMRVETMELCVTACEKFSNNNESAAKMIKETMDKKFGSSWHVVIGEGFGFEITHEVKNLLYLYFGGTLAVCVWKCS
B2: Calcium-binding and coiled-coil domain-containing protein 2 (Homo sapiens), Q13137 (parent)
chain: MEETIKDPPTSAVLLDHCHFSQVIFNSVEKFYIPGGDVTCHYTFTQHFIPRRKDWIGIFRVGWKTTREYYTFMWVTLPIDLNNKSAKQQEVQFKAYYLPKDDEYYQFCYVDEDGVVRGASIPFQFRPENEEDILVVTTQGEVEEIEQHNKELCKENQELKDSCISLQKQNSDMQAELQKKQEELETLQSINKKLELKVKEQKDYWETELLQLKEQNQKMSSENEKMGIRVDQLQAQLSTQEKEMEKLVQGDQDKTEQLEQLKKENDHLFLSLTEQRKDQKKLEQTVEQMKQNETTAMKKQQELMDENFDLSKRLSENEIICNALQRQKERLEGENDLLKRENSRLLSYMGLDFNSLPYQVPTSDEGGARQNPGLAYGNPYSGIQESSSPSPLSIKKCPICKADDICDHTLEQQQMQPLCFNCPICDKIFPATEKQIFEDHVFCHSL
partner: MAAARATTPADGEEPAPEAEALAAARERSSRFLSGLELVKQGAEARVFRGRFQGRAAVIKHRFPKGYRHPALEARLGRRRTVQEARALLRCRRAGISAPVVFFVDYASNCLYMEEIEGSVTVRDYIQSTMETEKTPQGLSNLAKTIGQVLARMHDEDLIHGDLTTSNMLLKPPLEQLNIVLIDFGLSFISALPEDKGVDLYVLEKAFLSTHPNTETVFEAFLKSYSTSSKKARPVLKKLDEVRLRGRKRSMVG
B3: Phosphatidylserine lipase ABHD16A (Homo sapiens), O95870 (parent)
chain: MAKLLSCVLGPRLYKIYRERDSERAPASVPETPTAVTAPHSSSWDTYYQPRALEKHADSILALASVFWSISYYSSPFAFFYLYRKGYLSLSKVVPFSHYAGTLLLLLAGVACLRGIGRWTNPQYRQFITILEATHRNQSSENKRQLANYNFDFRSWPVDFHWEEPSSRKESRGGPSRRGVALLRPEPLHRGTADTLLNRVKKLPCQITSYLVAHTLGRRMLYPGSVYLLQKALMPVLLQGQARLVEECNGRRAKLLACDGNEIDTMFVDRRGTAEPQGQKLVICCEGNAGFYEVGCVSTPLEAGYSVLGWNHPGFAGSTGVPFPQNEANAMDVVVQFAIHRLGFQPQDIIIYAWSIGGFTATWAAMSYPDVSAMILDASFDDLVPLALKVMPDSWRGLVTRTVRQHLNLNNAEQLCRYQGPVLLIRRTKDEIITTTVPEDIMSNRGNDLLLKLLQHRYPRVMAEEGLRVVRQWLEASSQLEEASIYSRWEVEEDWCLSVLRSYQAEHGPDFPWSVGEDMSADGRRQLALFLARKHLHNFEATHCTPLPAQNFQMPWHL
partner: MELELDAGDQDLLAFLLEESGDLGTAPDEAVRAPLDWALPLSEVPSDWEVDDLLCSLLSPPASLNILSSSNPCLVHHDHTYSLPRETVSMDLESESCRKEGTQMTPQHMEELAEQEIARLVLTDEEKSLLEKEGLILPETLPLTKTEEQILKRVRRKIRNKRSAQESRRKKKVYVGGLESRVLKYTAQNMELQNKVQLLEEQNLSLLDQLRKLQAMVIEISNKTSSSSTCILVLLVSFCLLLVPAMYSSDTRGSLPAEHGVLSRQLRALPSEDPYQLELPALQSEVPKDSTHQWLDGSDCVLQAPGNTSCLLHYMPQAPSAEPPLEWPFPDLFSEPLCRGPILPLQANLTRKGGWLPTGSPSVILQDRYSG
B4: NF-kappa-B inhibitor delta (Homo sapiens), Q8NI38 (parent)
chain: MEAGPWRVSAPPSGPPQFPAVVPGPSLEVARAHMLALGPQQLLAQDEEGDTLLHLFAARGLRWAAYAAAEVLQVYRRLDIREHKGKTPLLVAAAANQPLIVEDLLNLGAEPNAADHQGRSVLHVAATYGLPGVLLAVLNSGVQVDLEARDFEGLTPLHTAILALNVAMRPSDLCPRVLSTQARDRLDCVHMLLQMGANHTSQEIKSNKTVLHLAVQAANPTLVQLLLELPRGDLRTFVNMKAHGNTALHMAAALPPGPAQEAIVRHLLAAGADPTLRNLENEQPVHLLRPGPGPEGLRQLLKRSRVAPPGLSS
partner: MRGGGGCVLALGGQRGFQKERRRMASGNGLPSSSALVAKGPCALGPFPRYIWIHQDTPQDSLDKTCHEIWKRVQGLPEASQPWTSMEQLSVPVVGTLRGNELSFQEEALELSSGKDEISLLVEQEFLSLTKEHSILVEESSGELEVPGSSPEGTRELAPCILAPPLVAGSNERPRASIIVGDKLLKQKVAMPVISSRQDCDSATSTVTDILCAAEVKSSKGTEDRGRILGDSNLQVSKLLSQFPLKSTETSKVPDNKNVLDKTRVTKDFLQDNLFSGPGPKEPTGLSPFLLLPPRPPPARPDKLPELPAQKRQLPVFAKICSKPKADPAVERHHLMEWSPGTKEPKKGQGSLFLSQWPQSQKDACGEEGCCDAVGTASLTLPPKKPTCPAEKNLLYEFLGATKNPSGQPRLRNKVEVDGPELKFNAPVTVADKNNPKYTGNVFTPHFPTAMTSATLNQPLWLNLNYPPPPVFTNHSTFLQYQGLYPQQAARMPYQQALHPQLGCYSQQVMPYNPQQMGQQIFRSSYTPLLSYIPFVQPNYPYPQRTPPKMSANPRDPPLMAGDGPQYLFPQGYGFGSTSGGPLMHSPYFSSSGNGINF
B5: Phosphatidylinositol-3-phosphate phosphatase MTMR7 (Homo sapiens), Q9Y216 (parent)
chain: MEHIRTPKVENVRLVDRVSPKKAALGTLYLTATHVIFVENSPDPRKETWILHSQISTIEKQATTATGCPLLIRCKNFQIIQLIIPQERDCHDVYISLIRLARPVKYEELYCFSFNPMLDKEEREQGWVLIDLSEEYTRMGLPNHYWQLSDVNRDYRVCDSYPTELYVPKSATAHIIVGSSKFRSRRRFPVLSYYYKDNHASICRSSQPLSGFSARCLEDEQMLQAIRKANPGSDFVYVVDTRPKLNAMANRAAGKGYENEDNYSNIKFQFIGIENIHVMRNSLQKMLEVCELKSPSMSDFLWGLENSGWLRHIKAIMDAGIFIAKAVSEEGASVLVHCSDGWDRTAQVCSVASLLLDPHYRTLKGFMVLIEKDWISFGHKFNHRYGNLDGDPKEISPVIDQFIECVWQLMEQFPCAFEFNERFLIHIQHHIYSCQFGNFLCNSQKERRELKIQERTYSLWAHLWKNRADYLNPLFRADHSQTQGTLHLPTTPCNFMYKFWSGMYNRFEKGMQPRQSVTDYLMAVKEETQQLEEELEALEERLEKIQKVQLNCTKVKSKQSEPSKHSGFSTSDNSIANTPQDYSGNMKSFPSRSPSQGDEDSALILTQDNLKSSDPDLSANSDQESGVEDLSCRSPSGGEHAPSEDSGKDRDSDEAVFLTA
partner: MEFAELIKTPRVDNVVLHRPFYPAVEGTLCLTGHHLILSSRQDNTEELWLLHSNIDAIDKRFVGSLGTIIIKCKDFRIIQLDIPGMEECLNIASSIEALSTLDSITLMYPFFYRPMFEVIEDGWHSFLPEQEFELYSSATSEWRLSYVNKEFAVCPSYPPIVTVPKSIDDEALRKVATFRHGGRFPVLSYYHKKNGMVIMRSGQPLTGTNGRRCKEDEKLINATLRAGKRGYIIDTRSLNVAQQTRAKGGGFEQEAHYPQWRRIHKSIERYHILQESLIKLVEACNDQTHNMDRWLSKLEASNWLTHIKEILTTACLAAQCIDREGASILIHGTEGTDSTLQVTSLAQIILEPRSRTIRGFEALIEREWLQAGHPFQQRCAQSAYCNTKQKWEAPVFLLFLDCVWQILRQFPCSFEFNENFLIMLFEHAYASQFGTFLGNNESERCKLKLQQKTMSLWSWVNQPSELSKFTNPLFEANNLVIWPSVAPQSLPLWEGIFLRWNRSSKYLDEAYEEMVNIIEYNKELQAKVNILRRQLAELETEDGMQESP
B6: Centrosomal protein of 55 kDa (Homo sapiens), Q53EZ4 (parent)
chain: MSSRSTKDLIKSKWGSKPSNSKSETTLEKLKGEIAHLKTSVDEITSGKGKLTDKERHRLLEKIRVLEAEKEKNAYQLTEKDKEIQRLRDQLKARYSTTTLLEQLEETTREGERREQVLKALSEEKDVLKQQLSAATSRIAELESKTNTLRLSQTVAPNCFNSSINNIHEMEIQLKDALEKNQQWLVYDQQREVYVKGLLAKIFELEKKTETAAHSLPQQTKKPESEGYLQEEKQKCYNDLLASAKKDLEVERQTITQLSFELSEFRRKYEETQKEVHNLNQLLYSQRRADVQHLEDDRHKTEKIQKLREENDIARGKLEEEKKRSEELLSQVQFLYTSLLKQQEEQTRVALLEQQMQACTLDFENEKLDRQHVQHQLHVILKELRKARNQITQLESLKQLHEFAITEPLVTFQGETENREKVAASPKSPTAALNESLVECPKCNIQYPATEHRDLLVHVEYCSK
partner: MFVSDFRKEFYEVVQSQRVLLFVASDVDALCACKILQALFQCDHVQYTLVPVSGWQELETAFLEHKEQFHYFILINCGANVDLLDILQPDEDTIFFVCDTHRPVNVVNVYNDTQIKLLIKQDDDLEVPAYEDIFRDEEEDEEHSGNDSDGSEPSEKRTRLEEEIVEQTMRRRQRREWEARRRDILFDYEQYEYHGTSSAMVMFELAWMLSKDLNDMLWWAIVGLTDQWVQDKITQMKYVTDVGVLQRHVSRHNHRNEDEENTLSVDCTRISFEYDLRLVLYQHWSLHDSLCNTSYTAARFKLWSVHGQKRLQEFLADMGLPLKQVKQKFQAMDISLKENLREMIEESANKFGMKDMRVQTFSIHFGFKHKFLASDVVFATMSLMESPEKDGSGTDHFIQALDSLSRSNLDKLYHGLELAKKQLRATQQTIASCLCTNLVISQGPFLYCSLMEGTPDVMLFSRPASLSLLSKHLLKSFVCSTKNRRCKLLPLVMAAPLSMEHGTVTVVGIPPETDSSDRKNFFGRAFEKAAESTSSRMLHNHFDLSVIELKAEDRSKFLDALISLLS

Variants of: B1
Settings: with dnal4_human DNAL4, O96015
With M202L the “effect of a mutation on the interaction” value was “with no effect”.

Variants of: B2
Settings: with prpk_human TP53RK
For V248A, the “effect of a mutation on the interaction” value was “with no effect”.

Variants of: B3
Settings: with creb3_human CREB3, O43889
With R184L the “effect of a mutation on the interaction” value was “with no effect”.

Variants of: B4
Settings: with ca094_human C1orf94, Q6P1W5
For V29A, the “effect of a mutation on the interaction” value was “with no effect”.

Variants of: B5
Settings: with mtmr9_human MTMR9, Q96QG7
In the case of M522T, the “effect of a mutation on the interaction” value is reported as “with no effect”.

Variants of: B6
Settings: with cdc45_human CDC45, O75419
In the case of H57Q, the “effect of a mutation on the interaction” value is reported as “with no effect”.
